In patent US20130231286A1, “Use of Prolactin Receptor Antagonist and Chemotherapeutic Drug for Treating Ovarian Cancer” (ONCOLIX, INC., priority 2010, published 2013):

Key:
[1] = tested on: mouse ovarian cancer cells ID8; assay: Mouse ovarian cancer cells ID8 injected intraperitoneally in SCID mice: tumors and secondary nodules; format: in vivo; details: 52 days, G129R 100 ug daily, DCT 25 ug weekly
Protocol: SCID mice were injected with one million mouse ovarian cancer cells ID8 intraperitoneally on day 1.
All mice were treated for 52 days and then sacrificed, and tumors from every experimental group were weighted.
The effect of G129R and the G129R+DCT combination on the ability of mouse ovarian cancer cells to metastasize was also studied.

[2] = tested on: human ovarian cancer cells SKOV3; assay: Human ovarian cancer cells SKOV3 injected intraperitoneally in SCID mice: tumors and secondary nodules; format: in vivo, mouse; details: 38 days, G129R 100 ug daily, DCT 25 ug weekly
Protocol: SCID mice (laboratory experimental animals that lack both T and B lymphocytes) were injected with one million human ovarian cancer cells SKOV3 intraperitoneally on day 1.
All mice were treated for 38 days and then sacrificed, and tumors from every experimental group were weighted.
The effect of G129R and the G129R+DCT combination on the ability of human ovarian cancer cells to metastasize was also studied.

[3] = tested on: phosphorylated HER2/neu protein; assay: Dose-dependent response of phosphorylated HER2/neu in tumors in vivo (western blotting); design: species or system mouse; details: i.p. for ten days; 2.5, 5, 10, 20 mg/kg/day tested
Protocol: To determine a minimal dosage of G129R required for decreasing phosphorylation of HER^+/neu in vivo, a biopsy was removed from tumors of MMTV/neu transgenic mice and was used as a self-control baseline. The mice were then treated i.p. for ten days with either PBS or G129R at the following concentrations: 50, 100, 200 or 400 ug daily (2.5 mg/kg/day, 5 mg/kg/day; 10 mg/kg/day; or 20 mg/kg/day of G129R). The tumors were then harvested and processed for western blotting. The western blots were then probed with an antibody that detects phosphorylated HER2/neu protein and an antibody against beta-tubulin as a control for gel loading and western blotting transfer.

[4] = tested on: mammary HER2+ adenocarcinomas of MMTV/neu transgenic mice; assay: ALDH1 activity in tumor cells isolated from treated MMTV/neu transgenic mice; format: in vivo, mouse
Protocol: MMTV/neu transgenic mice carry an activated c-neu oncogene driven by a mouse mammary tumor virus (MMTV) promoter and develop mammary HER2^+ adenocarcinomas (Muller et al. 1988. Cell. 54(1):105-15). MMTV/neu transgenic mice bearing mammary tumors were treated with PBS (n=4) or G129R for 5 (n=2) or 10 (n=3) days (10 mg/kg, i.p.). The tumors were isolated at the end of treatment, digested to a single cell suspension, and ALDH1 activity levels were compared.

[5] = tested on: Primary mammary tumor cells isolated from MMTV/neu transgenic mouse; assay: ALDH1 activity in cultured primary MMTV/neu mammary tumor cells, time course; format: cell-based; details: G129R 10 ug/ml
Protocol: Primary mammary tumor cells were isolated from MMTV/neu transgenic mouse and cultured in the presence of G129R (10 ug/ml) or PRL (100 ng/ml) for 24, 48, 72, or 96 hrs. Specifically, tumor removed from an MMTV-neu mouse was digested to a single cell suspension and plated in 12-well plates at 1×10^5 cells/ml. Cells were allowed to adhere for 24 hours in growth media followed by 2 hours of serum-free media depletion. The cells were then either treated without (control) or with prolactin (100 ng/ml) or G129R (10 ug/ml). Cells were collected following 24, 48, 72, or 96 hours of treatment and the ALDH-1 activity was measured.

[6] = tested on: HER2+/neu tumors implanted into female transgenic mice; assay: Growth of implanted tumors in transgenic mice; format: in vivo, mouse; details: 10 mg/kg i.p. daily, 50 days; ±SEM
Protocol: In two separate experiments, tumors were isolated from female transgenic mice, sectioned into equivalent sized pieces and implanted into age-matched recipient female transgenic mice. Ten days after implantation, mice were randomized into either control (n=3-4) or G129R treated groups (n=4, 10 mg/kg, i.p. daily). The mice were then treated on a daily basis for 50 days and tumor volumes for the control and treated groups were monitored.

[7] = tested on: lung metastases of HER2+/neu breast tumors; assay: Lung metastases after removal of primary breast tumors in MMTV/neu mice; format: in vivo, mouse; details: 200 ug/day i.p. for more than 40 days, vs untreated control, P<0.05
Protocol: Primary breast tumors were removed from MMTV/neu transgenic mice. The mice were then treated either with PBS or G129R (200 ug/day, i.p.) for more than 40 days. When the secondary tumors (recurrence) grew to a certain size, the mice were sacrificed and the lungs were excised and fixed in Bouin's fixative to observe metastasis.

[8] = tested on: phosphorylated Neu protein; assay: Phosphorylation of Neu protein in primary and secondary tumors (western blotting); format: in vivo, mouse; details: 200 ug per day for 5 days, vs PBS
Protocol: MMTV/neu mice (bearing primary and secondary tumors) were treated either with PBS (control) or with 200 ug of G129R per day for 5 days. Primary and secondary tumors were removed 24 hours following the 5th treatment and processed for western blotting.

[9] = tested on: Human triple-negative breast cancer cells MDA-MB-231; assay: ALDH1 activity (ALDEFLUOR fluorescent assay) in triple-negative breast cancer cells; format: cell-based; details: MDA-MB-231, G129R 10 ug/ml, three days, vs control
Protocol: Human triple-negative breast cancer cells MDA-MB-231 and control breast cancer cells T-47D were plated in 6 well plates at 1×10^5 cells/ml, and allowed to adhere for 24 hours in growth media followed by 2 hours of serum free media depletion. The cells were then cultured either without (control) or with prolactin (100 ng/ml) or G129R (10 ug/ml) for three days. The cells were then collected and the ALDH-1 activity (this enzyme is a marker for cancer stem cells. See Ginestier et al., Cell Stem Cell 2007 1(5): 555-567) was measured by ALDEFLUOR^R fluorescent assay (StemCell Technologies).

[10] = tested on: phosphorylated HER2/neu protein; assay: Time-dependent response of phosphorylated HER2/neu in tumors in vivo (western blot); design: species or system mouse; details: 10 mg/kg/day i.p.
Protocol: To determine an optimal length of treatment with G129R, MMTV tumor-bearing mice were treated with 200 ug G129R for either five or ten days. Tumors were removed 24 hours after the last treatment and processed for western blot analysis. […] As also can be seen in FIG. 8, of 10 mice receiving a 10 day treatment of G129R (10 mg/kg/day, i.p.), tumors from 3 mice were highly responsive and virtually no phosphorylated HER2/neu was detected in these tumors, 5 mice were moderately responsive and 2 mice were nonresponsive.

With `CC(=O)O[C@@]12CO[C@@H]1C[C@H](O)[C@@]1(C)C(=O)[C@H](O)C3=C(C)[C@@H](OC(=O)[C@H](O)[C@@H](NC(=O)OC(C)(C)C)c4ccccc4)C[C@@](O)([C@@H](OC(=O)c4ccccc4)[C@H]21)C3(C)C` [docetaxel, reference compound] the “number of secondary nodules (metastases) versus control” value (“number … (metastases) versus control” below) [1] was “suppressed the number of secondary nodules”, the “size (weight) of tumors versus control” value [1] was “suppressed the tumor growth” and the “number … (metastases) versus control” value [2] was “suppressed the number of secondary nodules”. The “size (weight) of tumors versus control” value [2] was “suppressed the growth of tumors”.

B1: G129R: prolactin receptor antagonist: human prolactin in which glycine at position 129 is substituted with arginine (protein)
chain: LPICPGGAARCQVTLRDLFDRAVVLSHYIHNLSSEMFSEFDKRYTHGRGFITKAINSCHTSSLATPEDKEQAQQMNQKDFLSLIVSILRSWNEPLYHLVTEVRGMQEAPEAILSKAVEIEEQTKRLLERMELIVSQVHPETKENEIYPVWSGLPSLQMADEESRLSAYYNLLHCLRRDSHKIDNYLKLLKCRIIHNNNC
In the case of B1, the “lowest dosage with inhibitory effect on phosphorylation of HER+/neu” value [3] is reported as 5 mg/kg/day, the “ALDH1 activity in cancer cells isolated from treated animals” value ([4]; 10 mg/kg i.p. for 5 or 10 days, vs PBS) is reported as “significantly reduced” and the “ALDH1 activity in cancer cells after ten days of treatment” value ([4]; 10 mg/kg i.p., ten days) is reported as “Practically no ALDH1 activity was detected”. For the same molecule, the “reduction of ALDH1 activity versus control” value ([5]; 96 hrs) was 92.3%, the “ALDH1 activity over the time course” value ([5]; 24, 48, 72, 96 hrs) was “steady decrease” and the “final tumor volume smaller than control (first value of two experiments)” value [6] was 67.1%. The “final tumor volume smaller than control (second value of two experiments)” value [6] was 71.5%, the “final tumor weight reduced versus control (first value of two experiments)” value [6] was 61.3% and the “final tumor weight reduced versus control (second value of two experiments)” value [6] was 62.5%. For the same molecule, the “percentage of animals with lung metastases” value [7] was “significantly reduced”, the “number … (metastases) versus control” value [1] was “decreased the number of secondary nodules” and the “size (weight) of tumors versus control” value [1] was “decreased the size of tumors”. For the same molecule, the “phosphorylated Neu protein in primary tumors” value [8] was “significant decrease”, the “phosphorylation of neu in secondary tumors” value ([8]; some phosphorylated neu still detected) was “decrease” and the “ALDH1 activity in triple-negative breast cancer cells” value [9] was “significantly reduced”. The “number … (metastases) versus control” value [2] was “decreased the number of secondary nodules”, the “size (weight) of tumors versus control” value [2] was “decreased the size of tumors” and the “mice highly responsive (virtually no phosphorylated HER2/neu detected)” value ([10]; of 10 mice, 10 day treatment) was 3 mice. For the same molecule, the mice moderately responsive ([10]; of 10 mice, 10 day treatment) was 5 mice, the nonresponsive mice ([10]; of 10 mice, 10 day treatment) was 2 mice and the “mice moderately responsive (noticeable reduction in phosphorylated HER2/neu)” value ([10]; of 14 mice, 5 day treatment) was 4 mice. The “mice whose tumors showed drastic reduction in phosphorylated HER2/neu” value ([10]; of 14 mice, 5 day treatment) was 5 mice and the nonresponsive mice ([10]; of 14 mice, 5 day treatment) was 5 mice.
